Laboratory results as given in patent US20180155451A1 (published 2018).

T1: FcγRIIa R (human FcγRIIa, allotype R, Arg at position 131), extracellular domain with C-terminal His tag (human, UniProt P12318 34-217)
T1 construct: extracellular domain; expressed in FreeStyle293 cells; analyte in Biacore; also called 2aR; FcgRIIa R
T1 sequence (looked up): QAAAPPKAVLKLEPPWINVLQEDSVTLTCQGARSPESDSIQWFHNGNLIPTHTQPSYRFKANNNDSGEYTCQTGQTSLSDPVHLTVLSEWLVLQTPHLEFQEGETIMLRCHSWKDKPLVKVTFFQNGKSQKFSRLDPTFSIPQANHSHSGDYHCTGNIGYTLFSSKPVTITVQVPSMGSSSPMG


Target: T1, FcγRIIa R (human FcγRIIa, allotype R, …)
Assay: SPR (Biacore), relative binding vs GpH7-B3/GpL16-k0
Description: Analysis of interaction between objective antibody and the FcγR was carried out using Biacore T100 (GE Healthcare). HBS-EP+ (GE Healthcare) was used as the running buffer, and the measurement temperature was set to 25° C. Chips produced by immobilizing the antigen peptide by the amine coupling method to a Series S Sencor Chip CM5 (GE Healthcare), or alternatively, chips produced by allowing preliminarily biotinylated antigen peptides to interact with and immobilize onto a Series S Sensor Chip SA (certified) (GE Healthcare) were used. Antibodies of interest were captured onto an antigen peptide-immobilized chip, and allowed to interact to each FcγR diluted with running buffer. To regenerate and repeatedly use the chip, the antibodies captured on the chip were washed off by reacting 10 mM glycine-HCl, pH 1.5.
The FcγR-binding activity of each antibody was assessed primarily using as an indicator the FcγR-binding activity and dissociation constant for FcγR.

Binder | Ho/Con_2aR
GpH7-B3 variant S337_02A/GpL16-k0 (antibody, human IgG1, kappa, homodimerized antibody, mutation in both H chains; also called Ho Ab) heavy: not shown light: DIVMTQSPLSLPVTPGEPASISCQASESLVHSNRNTYLHWYLQKPGQSPQLLIYKVSNRFSGVPDRFSGSGSGTDFTLKISRVEAEDVGVYYCSQNTHVPPTFGQGTKVEIERTVAAPSVFIFPPSDEQLKSGTASVVCLLNNFYPREAKVQWKVDNALQSGNSQESVTEQDSKDSTYSLSSTLTLSKADYEKHKVYACEVTHQGLSSPVTKSFNRGEC | 102 relative, control = 100
GpH7-B3 variant P238_20W/GpL16-k0 (antibody, human IgG1, kappa, homodimerized antibody, mutation in both H chains; also called Ho Ab) heavy: not shown light: DIVMTQSPLSLPVTPGEPASISCQASESLVHSNRNTYLHWYLQKPGQSPQLLIYKVSNRFSGVPDRFSGSGSGTDFTLKISRVEAEDVGVYYCSQNTHVPPTFGQGTKVEIERTVAAPSVFIFPPSDEQLKSGTASVVCLLNNFYPREAKVQWKVDNALQSGNSQESVTEQDSKDSTYSLSSTLTLSKADYEKHKVYACEVTHQGLSSPVTKSFNRGEC | 25.7 relative, control = 100
GpH7-B3 variant P331_03V/GpL16-k0 (antibody, human IgG1, kappa, homodimerized antibody, mutation in both H chains; also called Ho Ab) heavy: not shown light: DIVMTQSPLSLPVTPGEPASISCQASESLVHSNRNTYLHWYLQKPGQSPQLLIYKVSNRFSGVPDRFSGSGSGTDFTLKISRVEAEDVGVYYCSQNTHVPPTFGQGTKVEIERTVAAPSVFIFPPSDEQLKSGTASVVCLLNNFYPREAKVQWKVDNALQSGNSQESVTEQDSKDSTYSLSSTLTLSKADYEKHKVYACEVTHQGLSSPVTKSFNRGEC | 89.1 relative, control = 100
GpH7-B3 variant P331_06M/GpL16-k0 (antibody, human IgG1, kappa, homodimerized antibody, mutation in both H chains; also called Ho Ab) heavy: not shown light: DIVMTQSPLSLPVTPGEPASISCQASESLVHSNRNTYLHWYLQKPGQSPQLLIYKVSNRFSGVPDRFSGSGSGTDFTLKISRVEAEDVGVYYCSQNTHVPPTFGQGTKVEIERTVAAPSVFIFPPSDEQLKSGTASVVCLLNNFYPREAKVQWKVDNALQSGNSQESVTEQDSKDSTYSLSSTLTLSKADYEKHKVYACEVTHQGLSSPVTKSFNRGEC | 79.8 relative, control = 100
GpH7-B3 variant P238_19Q/GpL16-k0 (antibody, human IgG1, kappa, homodimerized antibody, mutation in both H chains; also called Ho Ab) heavy: not shown light: DIVMTQSPLSLPVTPGEPASISCQASESLVHSNRNTYLHWYLQKPGQSPQLLIYKVSNRFSGVPDRFSGSGSGTDFTLKISRVEAEDVGVYYCSQNTHVPPTFGQGTKVEIERTVAAPSVFIFPPSDEQLKSGTASVVCLLNNFYPREAKVQWKVDNALQSGNSQESVTEQDSKDSTYSLSSTLTLSKADYEKHKVYACEVTHQGLSSPVTKSFNRGEC | 19.4 relative, control = 100
GpH7-B3 variant P238_10E/GpL16-k0 (antibody, human IgG1, kappa, homodimerized antibody, mutation in both H chains; also called Ho Ab) heavy: not shown light: DIVMTQSPLSLPVTPGEPASISCQASESLVHSNRNTYLHWYLQKPGQSPQLLIYKVSNRFSGVPDRFSGSGSGTDFTLKISRVEAEDVGVYYCSQNTHVPPTFGQGTKVEIERTVAAPSVFIFPPSDEQLKSGTASVVCLLNNFYPREAKVQWKVDNALQSGNSQESVTEQDSKDSTYSLSSTLTLSKADYEKHKVYACEVTHQGLSSPVTKSFNRGEC | 21.4 relative, control = 100
GpH7-B3 variant P271_10E/GpL16-k0 (antibody, human IgG1, kappa, homodimerized antibody, mutation in both H chains; also called Ho Ab) heavy: not shown light: DIVMTQSPLSLPVTPGEPASISCQASESLVHSNRNTYLHWYLQKPGQSPQLLIYKVSNRFSGVPDRFSGSGSGTDFTLKISRVEAEDVGVYYCSQNTHVPPTFGQGTKVEIERTVAAPSVFIFPPSDEQLKSGTASVVCLLNNFYPREAKVQWKVDNALQSGNSQESVTEQDSKDSTYSLSSTLTLSKADYEKHKVYACEVTHQGLSSPVTKSFNRGEC | 88.8 relative, control = 100
GpH7-B3 variant P271_09D/GpL16-k0 (antibody, human IgG1, kappa, homodimerized antibody, mutation in both H chains; also called Ho Ab) heavy: not shown light: DIVMTQSPLSLPVTPGEPASISCQASESLVHSNRNTYLHWYLQKPGQSPQLLIYKVSNRFSGVPDRFSGSGSGTDFTLKISRVEAEDVGVYYCSQNTHVPPTFGQGTKVEIERTVAAPSVFIFPPSDEQLKSGTASVVCLLNNFYPREAKVQWKVDNALQSGNSQESVTEQDSKDSTYSLSSTLTLSKADYEKHKVYACEVTHQGLSSPVTKSFNRGEC | 92.4 relative, control = 100
GpH7-B3 variant P238_15Y/GpL16-k0 (antibody, human IgG1, kappa, homodimerized antibody, mutation in both H chains; also called Ho Ab) heavy: not shown light: DIVMTQSPLSLPVTPGEPASISCQASESLVHSNRNTYLHWYLQKPGQSPQLLIYKVSNRFSGVPDRFSGSGSGTDFTLKISRVEAEDVGVYYCSQNTHVPPTFGQGTKVEIERTVAAPSVFIFPPSDEQLKSGTASVVCLLNNFYPREAKVQWKVDNALQSGNSQESVTEQDSKDSTYSLSSTLTLSKADYEKHKVYACEVTHQGLSSPVTKSFNRGEC | 95.9 relative, control = 100
GpH7-B3 variant P238_16H/GpL16-k0 (antibody, human IgG1, kappa, homodimerized antibody, mutation in both H chains; also called Ho Ab) heavy: not shown light: DIVMTQSPLSLPVTPGEPASISCQASESLVHSNRNTYLHWYLQKPGQSPQLLIYKVSNRFSGVPDRFSGSGSGTDFTLKISRVEAEDVGVYYCSQNTHVPPTFGQGTKVEIERTVAAPSVFIFPPSDEQLKSGTASVVCLLNNFYPREAKVQWKVDNALQSGNSQESVTEQDSKDSTYSLSSTLTLSKADYEKHKVYACEVTHQGLSSPVTKSFNRGEC | 25.5 relative, control = 100

Second part, the binder after the results:

Ho/Con_2aR | Binder
67 relative, control = 100 | GpH7-B3 variant P331_07I/GpL16-k0 (antibody, human IgG1, kappa, homodimerized antibody, mutation in both H chains; also called Ho Ab) heavy: not shown light: DIVMTQSPLSLPVTPGEPASISCQASESLVHSNRNTYLHWYLQKPGQSPQLLIYKVSNRFSGVPDRFSGSGSGTDFTLKISRVEAEDVGVYYCSQNTHVPPTFGQGTKVEIERTVAAPSVFIFPPSDEQLKSGTASVVCLLNNFYPREAKVQWKVDNALQSGNSQESVTEQDSKDSTYSLSSTLTLSKADYEKHKVYACEVTHQGLSSPVTKSFNRGEC
74.4 relative, control = 100 | GpH7-B3 variant P331_08L/GpL16-k0 (antibody, human IgG1, kappa, homodimerized antibody, mutation in both H chains; also called Ho Ab) heavy: not shown light: DIVMTQSPLSLPVTPGEPASISCQASESLVHSNRNTYLHWYLQKPGQSPQLLIYKVSNRFSGVPDRFSGSGSGTDFTLKISRVEAEDVGVYYCSQNTHVPPTFGQGTKVEIERTVAAPSVFIFPPSDEQLKSGTASVVCLLNNFYPREAKVQWKVDNALQSGNSQESVTEQDSKDSTYSLSSTLTLSKADYEKHKVYACEVTHQGLSSPVTKSFNRGEC
94.6 relative, control = 100 | GpH7-B3 variant P331_10E/GpL16-k0 (antibody, human IgG1, kappa, homodimerized antibody, mutation in both H chains; also called Ho Ab) heavy: not shown light: DIVMTQSPLSLPVTPGEPASISCQASESLVHSNRNTYLHWYLQKPGQSPQLLIYKVSNRFSGVPDRFSGSGSGTDFTLKISRVEAEDVGVYYCSQNTHVPPTFGQGTKVEIERTVAAPSVFIFPPSDEQLKSGTASVVCLLNNFYPREAKVQWKVDNALQSGNSQESVTEQDSKDSTYSLSSTLTLSKADYEKHKVYACEVTHQGLSSPVTKSFNRGEC
80.8 relative, control = 100 | GpH7-B3 variant P331_14T/GpL16-k0 (antibody, human IgG1, kappa, homodimerized antibody, mutation in both H chains; also called Ho Ab) heavy: not shown light: DIVMTQSPLSLPVTPGEPASISCQASESLVHSNRNTYLHWYLQKPGQSPQLLIYKVSNRFSGVPDRFSGSGSGTDFTLKISRVEAEDVGVYYCSQNTHVPPTFGQGTKVEIERTVAAPSVFIFPPSDEQLKSGTASVVCLLNNFYPREAKVQWKVDNALQSGNSQESVTEQDSKDSTYSLSSTLTLSKADYEKHKVYACEVTHQGLSSPVTKSFNRGEC
87.8 relative, control = 100 | GpH7-B3 variant P331_13S/GpL16-k0 (antibody, human IgG1, kappa, homodimerized antibody, mutation in both H chains; also called Ho Ab) heavy: not shown light: DIVMTQSPLSLPVTPGEPASISCQASESLVHSNRNTYLHWYLQKPGQSPQLLIYKVSNRFSGVPDRFSGSGSGTDFTLKISRVEAEDVGVYYCSQNTHVPPTFGQGTKVEIERTVAAPSVFIFPPSDEQLKSGTASVVCLLNNFYPREAKVQWKVDNALQSGNSQESVTEQDSKDSTYSLSSTLTLSKADYEKHKVYACEVTHQGLSSPVTKSFNRGEC
76.9 relative, control = 100 | GpH7-B3 variant P331_18N/GpL16-k0 (antibody, human IgG1, kappa, homodimerized antibody, mutation in both H chains; also called Ho Ab) heavy: not shown light: DIVMTQSPLSLPVTPGEPASISCQASESLVHSNRNTYLHWYLQKPGQSPQLLIYKVSNRFSGVPDRFSGSGSGTDFTLKISRVEAEDVGVYYCSQNTHVPPTFGQGTKVEIERTVAAPSVFIFPPSDEQLKSGTASVVCLLNNFYPREAKVQWKVDNALQSGNSQESVTEQDSKDSTYSLSSTLTLSKADYEKHKVYACEVTHQGLSSPVTKSFNRGEC
88.8 relative, control = 100 | GpH7-B3 variant P331_09D/GpL16-k0 (antibody, human IgG1, kappa, homodimerized antibody, mutation in both H chains; also called Ho Ab) heavy: not shown light: DIVMTQSPLSLPVTPGEPASISCQASESLVHSNRNTYLHWYLQKPGQSPQLLIYKVSNRFSGVPDRFSGSGSGTDFTLKISRVEAEDVGVYYCSQNTHVPPTFGQGTKVEIERTVAAPSVFIFPPSDEQLKSGTASVVCLLNNFYPREAKVQWKVDNALQSGNSQESVTEQDSKDSTYSLSSTLTLSKADYEKHKVYACEVTHQGLSSPVTKSFNRGEC

Target: FcγRIIa H (human FcγRIIa, allotype with His at position 131), extracellular domain with C-terminal His tag (human, UniProt P12318 34-217)
Assay: SPR (Biacore), antibody captured on antigen peptide chip, FcγR as analyte; relative to HeCon Ab GpH7-A5/GpH7-B3/GpL16-k0 = 100

He/Con_2aH [control = 100] | Binder
102 | GpH7-A5/GpH7-B3 variant S267_10E/GpL16-k0 (antibody, human IgG1, kappa, heterodimerized, mutation in one H chain only; also called He Ab) heavy 1: not shown heavy 2: not shown light: DIVMTQSPLSLPVTPGEPASISCQASESLVHSNRNTYLHWYLQKPGQSPQLLIYKVSNRFSGVPDRFSGSGSGTDFTLKISRVEAEDVGVYYCSQNTHVPPTFGQGTKVEIERTVAAPSVFIFPPSDEQLKSGTASVVCLLNNFYPREAKVQWKVDNALQSGNSQESVTEQDSKDSTYSLSSTLTLSKADYEKHKVYACEVTHQGLSSPVTKSFNRGEC
101 | GpH7-A5/GpH7-B3 variant S337_07I/GpL16-k0 (antibody, human IgG1, kappa, heterodimerized, mutation in one H chain only; also called He Ab) heavy 1: not shown heavy 2: not shown light: DIVMTQSPLSLPVTPGEPASISCQASESLVHSNRNTYLHWYLQKPGQSPQLLIYKVSNRFSGVPDRFSGSGSGTDFTLKISRVEAEDVGVYYCSQNTHVPPTFGQGTKVEIERTVAAPSVFIFPPSDEQLKSGTASVVCLLNNFYPREAKVQWKVDNALQSGNSQESVTEQDSKDSTYSLSSTLTLSKADYEKHKVYACEVTHQGLSSPVTKSFNRGEC
105 | GpH7-A5/GpH7-B3 variant S267_09D/GpL16-k0 (antibody, human IgG1, kappa, heterodimerized, mutation in one H chain only; also called He Ab) heavy 1: not shown heavy 2: not shown light: DIVMTQSPLSLPVTPGEPASISCQASESLVHSNRNTYLHWYLQKPGQSPQLLIYKVSNRFSGVPDRFSGSGSGTDFTLKISRVEAEDVGVYYCSQNTHVPPTFGQGTKVEIERTVAAPSVFIFPPSDEQLKSGTASVVCLLNNFYPREAKVQWKVDNALQSGNSQESVTEQDSKDSTYSLSSTLTLSKADYEKHKVYACEVTHQGLSSPVTKSFNRGEC
